From patent US20060270591A1, “Androgen receptor coregulators” (priority 2002, published 2006)

Tests used:
[1] = test system: AR; conditions: CV-1 cells; reported by others; cited from earlier work
[2] = biological target: T1, AR N-terminus and AR C-terminus (Homo sapiens, UniProt P10275); assay: Mammalian two-hybrid assay of AR N-C interaction in PC-3 cells; type: cell-based; conditions: DHT
T1 construct: AR DBD plus LBD (GST-AR-DL); expressed in transfected cells; host or cells: PC-3 cells (human prostate cancer line)
T1 sequence (P10275 555-920 limits assumed): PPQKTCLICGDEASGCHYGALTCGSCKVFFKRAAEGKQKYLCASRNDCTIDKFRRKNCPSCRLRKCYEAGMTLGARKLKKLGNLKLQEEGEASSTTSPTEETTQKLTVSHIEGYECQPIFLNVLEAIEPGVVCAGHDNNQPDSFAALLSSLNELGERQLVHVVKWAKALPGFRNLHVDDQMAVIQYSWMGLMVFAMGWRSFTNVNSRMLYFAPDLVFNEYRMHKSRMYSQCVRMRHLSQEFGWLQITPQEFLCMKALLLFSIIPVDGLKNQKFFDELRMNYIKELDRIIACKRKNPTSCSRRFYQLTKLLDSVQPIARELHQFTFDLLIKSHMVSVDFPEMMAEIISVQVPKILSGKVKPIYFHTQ
T1 sequence (P10275 1-559 partner limits assumed): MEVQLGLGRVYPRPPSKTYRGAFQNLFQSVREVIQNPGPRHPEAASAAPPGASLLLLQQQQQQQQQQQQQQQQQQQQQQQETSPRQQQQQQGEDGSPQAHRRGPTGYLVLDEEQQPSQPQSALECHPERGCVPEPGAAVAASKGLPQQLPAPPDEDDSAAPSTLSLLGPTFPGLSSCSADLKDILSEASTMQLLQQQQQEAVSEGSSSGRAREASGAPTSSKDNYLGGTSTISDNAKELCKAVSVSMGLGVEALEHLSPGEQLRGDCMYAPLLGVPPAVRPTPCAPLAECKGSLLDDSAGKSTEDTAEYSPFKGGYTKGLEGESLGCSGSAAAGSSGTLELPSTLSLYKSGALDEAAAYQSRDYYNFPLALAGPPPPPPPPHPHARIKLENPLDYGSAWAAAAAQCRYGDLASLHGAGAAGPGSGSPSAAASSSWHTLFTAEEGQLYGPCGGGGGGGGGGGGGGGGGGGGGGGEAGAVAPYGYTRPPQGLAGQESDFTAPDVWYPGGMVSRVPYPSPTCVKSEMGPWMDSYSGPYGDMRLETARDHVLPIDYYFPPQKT
Procedure: 44. […] PC-3 cells were transfected with 30 ng plasmids expressing Gal4(DBD)-AR-DL, VP16 or VP16-ARN combined with 1.5 μg pSG5, pSG5-bSV, -ARA55, or -SRC-1α as indicated. The reporter plasmid pG5-Luc (0.5 μg) and control plasmid pRL-Luc (1 ng) were transfected to every sample. The assay was carried out as described in FIG. 29C.
474. Mouse myoblast cell line (C2C12), human prostate cancer cell lines (PC-3 and DU145), and monkey kidney fibroblast cell line (COS-1) were maintained in Dulbecco's minimum essential medium (DMEM) containing penicillin (25 units/ml), streptomycin ([…]), and 10% fetal bovine serum (FBS). In mammalian two-hybrid assay, transfections were performed using the calcium phosphate precipitation method as described previously (15). Briefly, 1.5-3×10^5 cells were plated on 35-mm dishes for 24 h, and the medium was changed to DMEM containing 10% charcol-dextran stripped FBS (CD-FBS) 2 h before transfection. Cells were transfected with 0.5 μg plasmids expressing Gal4(DBD) and VP-16 fusion proteins as indicated. Gal4 response element controlled Firefly luciferase expression plasmid, pG5-Luc, was used as reporter gene. A Renilla luciferase expression plasmid pRL-SV40 was used as an internal control for transfection efficiency. The total amount of DNA was adjusted to 5 μg with pCMX-VP16 vectors. […]

[3] = biological target: T2, ER-α (Homo sapiens, UniProt P03372); assay: ER-α transactivation reporter assay (ERE-Luc) with SV; type: cell-based
T2 sequence (P03372 1-595): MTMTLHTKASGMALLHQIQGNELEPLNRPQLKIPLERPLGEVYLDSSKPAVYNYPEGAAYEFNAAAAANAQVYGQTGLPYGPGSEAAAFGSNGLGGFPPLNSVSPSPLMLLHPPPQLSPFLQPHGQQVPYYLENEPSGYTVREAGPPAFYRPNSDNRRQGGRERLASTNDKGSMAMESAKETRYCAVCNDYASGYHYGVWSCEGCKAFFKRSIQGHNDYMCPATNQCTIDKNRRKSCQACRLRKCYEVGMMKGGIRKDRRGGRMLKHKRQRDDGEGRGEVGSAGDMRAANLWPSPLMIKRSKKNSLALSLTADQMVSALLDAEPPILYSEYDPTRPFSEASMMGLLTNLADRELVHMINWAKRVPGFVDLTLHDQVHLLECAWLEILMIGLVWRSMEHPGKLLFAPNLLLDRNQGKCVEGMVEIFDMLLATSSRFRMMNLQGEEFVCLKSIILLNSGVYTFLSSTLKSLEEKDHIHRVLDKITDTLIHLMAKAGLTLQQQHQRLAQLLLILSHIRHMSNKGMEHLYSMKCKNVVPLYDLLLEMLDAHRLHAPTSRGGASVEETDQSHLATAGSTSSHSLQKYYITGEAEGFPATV
Procedure: 42. […] (A) The interaction of SV with AR, GR, PPAR-γ and ER-α is tested in mammalian two-hybrid assay. One μg plasmids expressing Gal4(DBD)-AR, GR, PPAR-γ or ER-α was co-transfected with 4 μg plasmids expressing VP16 or VP16-SVn to COS-1 cells. […] The assay method was the same as described in FIG. 29. Relative activities of ligand treatment to EtOH treatment are shown. (B) The coactivation function of SV in different receptors was assayed using reporter gene study. MMTV-Luc, PPRE-Luc, ERE-Luc are the reporter genes for AR, GR, PPAR-γ, and ER-α respectively. Lanes 1, 5, 9 and 13 are regarded as 1 fold in each panel.
475. In AR transactivation activity assays, transfections were performed using SuperFect (Qiagen, Chatsworth, Calif.) following protocols described in manual provided by Qiagen. Briefly, cells were plated on 35 mm dishes and after 24 h were transfected using the SuperFect kit. The total DNA amount was adjusted to 2 μg with pSG5 or pEGFP vectors. The medium was changed to DMEM with 10% CD-FBS 2 h after transfection. After 24 h, the DMEM with 10% CD-FBS was changed again, and the cells were treated with various steroids. Cells were harvested after 24 h for dual-luciferase assay as described in protocol provided by Promega. At least three independent experiments were carried out in each case.

AR, sequence (P10275 whole entry, the tested form may be a part): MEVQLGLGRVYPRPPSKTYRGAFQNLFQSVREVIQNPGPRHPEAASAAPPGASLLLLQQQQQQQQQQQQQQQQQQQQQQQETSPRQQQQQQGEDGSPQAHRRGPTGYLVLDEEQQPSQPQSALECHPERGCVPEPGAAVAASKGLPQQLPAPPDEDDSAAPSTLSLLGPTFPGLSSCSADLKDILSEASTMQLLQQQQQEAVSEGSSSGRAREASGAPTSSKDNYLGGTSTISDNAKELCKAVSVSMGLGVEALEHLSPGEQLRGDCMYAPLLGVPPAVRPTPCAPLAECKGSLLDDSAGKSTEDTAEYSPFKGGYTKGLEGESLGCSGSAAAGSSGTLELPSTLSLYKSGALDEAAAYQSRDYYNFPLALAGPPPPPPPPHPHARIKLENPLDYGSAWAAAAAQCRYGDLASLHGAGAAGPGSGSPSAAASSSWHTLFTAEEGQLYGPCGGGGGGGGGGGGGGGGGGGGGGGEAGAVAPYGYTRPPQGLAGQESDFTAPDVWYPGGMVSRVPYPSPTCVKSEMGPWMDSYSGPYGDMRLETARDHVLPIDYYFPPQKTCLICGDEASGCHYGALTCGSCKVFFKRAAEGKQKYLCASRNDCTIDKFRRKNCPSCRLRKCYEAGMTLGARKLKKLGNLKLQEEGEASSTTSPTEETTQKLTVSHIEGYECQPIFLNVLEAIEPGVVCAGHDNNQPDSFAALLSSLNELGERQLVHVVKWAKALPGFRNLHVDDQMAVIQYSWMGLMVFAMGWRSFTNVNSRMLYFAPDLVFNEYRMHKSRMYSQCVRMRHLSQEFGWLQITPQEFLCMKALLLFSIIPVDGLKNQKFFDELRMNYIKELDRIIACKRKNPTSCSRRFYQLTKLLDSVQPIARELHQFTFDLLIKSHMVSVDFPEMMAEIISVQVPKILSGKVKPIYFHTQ

effect on AR N-C interaction [2] | effect on the transactivation of ER-α [3] | Substance | enhancement of AR activity [1]
– | – | ARA70: ligand-enhanced AR coregulator, full length ARA70 | 2-3 fold
mild suppressive effect | little effect | SV: supervillin, 205 kDa actin binding protein; bovine SV (a.a. 1-1792) used in reporter assays | –
